In publication PMC6385242, “Identification and characterization of a factor Va-binding site on human prothrombin fragment 2” (Scientific Reports, 2019) one finds Kd data, which are given here for one molecule.

The target of the assay is T1, Wild-type prothrombin (human, UniProt P00734 44-622).
T1 construct: prothrombin, human
The experiment in a line: SPR; Biacore T200; FVa amine-coupled on a CM5 chip (8000-9000 RU); prothrombin 0-10,000 nM injected for 60 s at 30 uL/min; HBS (0.02 M HEPES, 0.15 M NaCl, pH 7.4) with 5 mM CaCl2 and 0.01% Tween-80; kinetic 1:1 Langmuir model. The following applies: both partners purified.

B1: Factor Va (complex)
heavy: AQLRQFYVAAQGISWSYRPEPTNSSLNLSVTSFKKIVYREYEPYFKKEKPQSTISGLLGPTLYAEVGDIIKVHFKNKADKPLSIHPQGIRYSKLSEGASYLDHTFPAEKMDDAVAPGREYTYEWSISEDSGPTHDDPPCLTHIYYSHENLIEDFNSGLIGPLLICKKGTLTEGGTQKTFDKQIVLLFAVFDESKSWSQSSSLMYTVNGYVNGTMPDITVCAHDHISWHLLGMSSGPELFSIHFNGQVLEQNHHKVSAITLVSATSTTANMTVGPEGKWIISSLTPKHLQAGMQAYIDIKNCPKKTRNLKKITREQRRHMKRWEYFIAAEEVIWDYAPVIPANMDKKYRSQHLDNFSNQIGKHYKKVMYTQYEDESFTKHTVNPNMKEDGILGPIIRAQVRDTLKIVFKNMASRPYSIYPHGVTFSPYEDEVNSSFTSGRNNTMIRAVQPGETYTYKWNILEFDEPTENDAQCLTRPYYSDVDIMRDIASGLIGLLLICKSRSLDRRGIQRAADIEQQAVFAVFDENKSWYLEDNINKFCENPDEVKRDDPKFYESNIMSTINGYVPESITTLGFCFDDTVQWHFCSVGTQNEILTIHFTGHSFIYGKRHEDTLTLFPMRGESVTVTMDNVGTWMLTSMNSSPRSKKLRLKFRDVKCIPDDDEDSYEIFEPPESTVMATRKMHDRLEPEDEESDADYDYQNRLAAALGIR
light: SNNGNRRNYYIAAEEISWDYSEFVQRETDIEDSDDIPEDTTYKKVVFRKYLDSTFTKRDPRGEYEEHLGILGPIIRAEVDDVIQVRFKNLASRPYSLHAHGLSYEKSSEGKTYEDDSPEWFKEDNAVQPNSSYTYVWHATERSGPESPGSACRAWAYYSAVNPEKDIHSGLIGPLLICQKGILHKDSNMPMDMREFVLLFMTFDEKKSWYYEKKSRSSWRLTSSEMKKSHEFHAINGMIYSLPGLKMYEQEWVRLHLLNIGGSQDIHVVHFHGQTLLENGNKQHQLGVWPLLPGSFKTLEMKASKPGWWLLNTEVGENQRAGMQTPFLIMDRDCRMPMGLSTGIISDSQIKASEFLGYWEPRLARLNNGGSYNAWSVEKLAAEFASKPWIQVDMQKEVIITGIQTQGAKHYLKSCYTTEFYVAYSSNQINWQIFKGNSTRNVMYFNGNSDASTIKENQFDPPIVARYIRISPTRAYNRPTLRLELQGCEVNGCSTPLGMENGKIENKQITASSFKKSWWGDYWEPFRARLNAQGRVNAWQAKANNNKQWLEIDLLKIKKITAIITQGCKSLSSEMYVKSYTIHYSEQGVEWKPYRLKSSMVDKIFEGNTNTKGHVKNFFNPPIISRFIRVIPKTWNQSIALRLELFGCDIY
notes: heavy chain of factor Va; light chain of factor Va; Bovine FVa is named only for the preparation of the heavy chain for NMR; the source of the FVa of the other experiments is in the Supplementary Materials; also called FVa
As to B1, the Kd came out at 1000 nM.
